Here are results for one variant from IntAct's records for PubMed 19298369.

B1: Sigma factor AlgU negative regulatory protein (Pseudomonas aeruginosa (strain ATCC 15692 / PAO1 / 1C / PRS 101 / LMG 12228)), P38107 (parent)
chain: MSREALQETLSAVMDNEADELELRRVLAACGEDAELRSTWSRYQLARSVMHREPTLPKLDIAAAVSAALADEAAPPKAEKGPWRMVGRLAVAASVTLAVLAGVRLYNQNDALPQMAQQGTTPQIALPQVKGPAVLAGYSEEQGAPQVITNSSSSDTRWHEQRLPIYLRQHVQQSAVSGTESALPYARAASLENR
partner: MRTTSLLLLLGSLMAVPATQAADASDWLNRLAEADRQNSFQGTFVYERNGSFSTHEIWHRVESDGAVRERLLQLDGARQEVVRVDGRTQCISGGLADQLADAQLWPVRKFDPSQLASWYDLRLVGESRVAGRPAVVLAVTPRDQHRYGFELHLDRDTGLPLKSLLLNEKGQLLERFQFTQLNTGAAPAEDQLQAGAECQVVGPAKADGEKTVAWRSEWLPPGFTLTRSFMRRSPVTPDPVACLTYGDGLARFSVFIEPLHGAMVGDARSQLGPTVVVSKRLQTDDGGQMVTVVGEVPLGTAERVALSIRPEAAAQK

Variants of B1 are the subject of this assay. As to conditions: with mucb_pseae mucB.
Consider MSREALQETLSAVMDNEADELELRRVLAACGEDAELRSTWSRYQLARSVMHREPTLPKLDIAAAVSAALADEAAPPKAEKGPWRMVGRLAVAASVTLAVLAGVRLYNQNDALPQMAQQGTTPQIALPQVKGPAVLAGYSEEQGAPQVITNSSSCDTRWHEQRLPIYLRQHVQQSAVSGTESALPYARAASLENR, for which the “effect of a mutation on the interaction” value is listed as “decreasing interaction strength”.
